Reference: patent EP4659810A1 (Université de Strasbourg, dated 2025)
Changes are numbered by the printed parent chain.

T1: VP1 on entire replicative virions of BK virus genotype Ia (Dunlop strain; ATCC VR-837) (BK virus genotype Ia (Dunlop strain), UniProt P03088 1-362)
T1 sequence: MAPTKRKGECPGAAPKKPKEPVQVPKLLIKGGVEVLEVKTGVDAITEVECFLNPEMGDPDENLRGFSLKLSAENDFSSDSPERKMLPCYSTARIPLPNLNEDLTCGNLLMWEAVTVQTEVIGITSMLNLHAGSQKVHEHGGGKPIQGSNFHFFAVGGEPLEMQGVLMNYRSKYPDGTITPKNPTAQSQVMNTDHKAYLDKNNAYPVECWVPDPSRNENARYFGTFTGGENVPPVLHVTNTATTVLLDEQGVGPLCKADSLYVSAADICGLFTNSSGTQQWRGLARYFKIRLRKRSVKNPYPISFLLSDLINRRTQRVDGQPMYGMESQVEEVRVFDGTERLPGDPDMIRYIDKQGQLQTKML

T2: VP1 on BKV genotype II pseudovirions (GBR-12; AB263920) (BK virus genotype II (GBR-12; AB263920), UniProt P14996 1-362)
T2 chain: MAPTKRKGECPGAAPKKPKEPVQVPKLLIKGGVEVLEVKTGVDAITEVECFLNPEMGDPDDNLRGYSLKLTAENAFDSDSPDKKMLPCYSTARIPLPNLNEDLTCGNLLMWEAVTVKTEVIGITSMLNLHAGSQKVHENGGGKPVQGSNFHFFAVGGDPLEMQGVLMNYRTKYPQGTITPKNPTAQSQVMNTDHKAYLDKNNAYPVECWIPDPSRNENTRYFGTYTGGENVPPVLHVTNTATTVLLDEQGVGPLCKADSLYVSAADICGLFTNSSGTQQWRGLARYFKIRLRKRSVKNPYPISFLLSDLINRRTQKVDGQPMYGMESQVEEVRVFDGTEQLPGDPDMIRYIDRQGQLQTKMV

T3: VP1 on BKV genotype Ia pseudovirions (BK-D; JF894228) (BK virus genotype Ia (BK-D; JF894228), UniProt P03088 1-362)
T3 sequence: T1 sequence

B1: monoclonal antibody D10P4 (antibody, V domains shown)
VH: EVQLLESGGGLVQPGGSLRLSCVASGFSIRGYAMNWVRQAPGKGLEWVSSLTSNGATTYYADSVKGRFTISRDNSKNTLFLQMHSLRGEDTAVYYCAKDRDAEWLGSEPFDPWGQGTLVTVSS
VL: EIVLTQSPGTLSLSPGERATLSCRASQRVSSSYLAWYQHKFGQAPRLLIYGASRRATGIPDRFSGSGSGTDFTLTISRLEPEDFAVYYCQQYGSSPRSFGQGTKLEIK
B2: monoclonal antibody D6P7 (antibody, V domains shown)
VH: B1 VH with V23A, S28N, I29F, G31S, A33G, T52R, N54S, A56V, F80Y, H84N
VL: B1 VL with R28S, V29L, S31N, F41P, Q43L, G51D, R54S, G67E, S95P
notes: Human mAb in human-IgG (heavy, kappa) expression plasmids, made in HEK293F
B3: monoclonal antibody E3P7 (antibody, V domains shown)
VH: EVQLLESGGGLVQPGGSLRLSCAASGFSFRSYAMNWVRQAPGKGLEWVSSLNSAGVSTYYAESVKGRFTISRDNSKNTLYLQMNSLRGEDTAVYYCAKDRGVEWLGSEPIDPWGQGTLVTVSS
VL: B1 VL with S32N, F41P, G51R, R54S
B4: monoclonal antibody G5P4 (antibody, V domains shown)
VH: B1 VH with I29L, K43R, T58A, S75F, F80Y, K98R, L118M
VL: not shown
notes: as for B2

How the values were obtained:
[1] = target: T1, VP1 on entire replicative virions of BK …; assay: cell-based or functional assay
[2] = target: VP1 on entire replicative virions of BKV genotype II (patient's isolate) (BK virus genotype II); assay: cell-based or functional assay
[3] = target: T2, VP1 on BKV genotype II pseudovirions …; assay: cell-based or functional assay
[4] = target: T4, VP1 pentamer of BKV genotype IV (BK virus genotype IV); assay: BLI (OctetRED96e), biotinylated VP1 pentamer on streptavidin sensor, mAb 0 to 40 nM in solution
T4 construct: Obtained by gene synthesis and subcloned into pESPRIT002; also called VP1 pentamer from genotype IV

[5] = target: T3, VP1 on BKV genotype Ia pseudovirions …; assay: cell-based or functional assay

Row | Binder | IC50, neutralization of fully replicative BKV virions (MRC5 cells) [1] [ng/mL] | IC50, neutralization of fully replicative BKV virions (MRC5 cells) [2] [ng/mL] | IC50, neutralization of BKV pseudovirions (luciferase, 293TT cells) [3] [ng/mL] | Kd [4] [nM] | IC50, neutralization of BKV pseudovirions (luciferase, 293TT cells) [5] [ng/mL]
1 | B1 | 0.06 | 0.05 |  |  | 
2 | B2 |  |  | 0.2 | 32.1 | 
3 | B3 | 0.03 | 0.005 |  |  | 
4 | B4 |  |  |  | 136 | 0.2
